The results in this text go back to US20190381086A1, “INHIBITION OF NEDDYLATION USING GLYCYL-tRNA SYNTHETASE INHIBITORS” (The Scripps Research Institute, priority 2015, published 2019).

The target in the test is T1, Ubc12^N8 (Homo sapiens, UniProt P61081+Q15843, C111S).
T1 construct: DEN1 which processes NEDD8 to its mature, 76-amino acid form; made in house; conjugate made enzymatically in vitro
Kind of test: Biolayer interferometry, immobilized Ubc12^N8. The following applies: for Kd: binding to immobilized Ubc12^N8. In kind it is binding. On the procedure: V5-tagged GlyRS and Flag-tagged Ubc12-C111S genes were co-transfected to HEK293 cell for the assay. FIG. 3B: Strong binding of Ubc12^N8 to GlyRS as determined by biolayer interferometry. A.U. indicates Arbitrary Unit. Binding analysis to immobilized GST-GlyRS was carried out with the same concentration (62.5 nM) of NEDD8, Ubc12, or Ubc12^N8 at 30°. FIG. 3C: Biolayer interferometry analysis confirms that GlyRS binding to Ubc12^N8. Binding analysis to immobilized Ubc12^N8 was carried out with a range of concentrations of full-length (8.07 nM-129 nM) GlyRS. FIG. 3D: Structural model of the GlyRS-Ubc12^N8 interaction generated using Patchdock (a server for molecular docking). FIGS. 3E-G: Biolayer interferometry analysis confirms that F84-L93 and I232-M238 regions, but not Insertion 1, are important for GlyRS binding to Ubc12^N8. Binding analysis to immobilized Ubc12^N8 was carried out with a range of concentrations (1.25-20 μg/mL) of ΔF84-L93 (8.16-130 nM), ΔI232-M238 (8.13-130 nM), and Alnsertion 1 (62.5-125 nM) GlyRS. FIG. 3H: Over-expression of ΔI232-M238 GlyRS in HEK293 cells cannot promote NEDD8 conjugation of Ubc12. HEK293 cells were transfected with pcDNA6V5 vectors containing the indicated gene fragment with a V5-tag.
The conjugated Ubc12 was prepared by mixing APPBP1/UBA3 (2 μM), Ubc12 (C111S; the mutant would form a stable ester linkage to NEDD8) (70 μM), and His-SUMO-tagged NEDD8 (100 μM). The mixture was incubated at 25° C. for 16 h in 50 mM NaOAc pH 5.5, 50 mM NaCl, 1 mM MgCl2, and 2 mM ATP. Ubc12^N8 was then purified by gel filtration chromatography using a Superdex 200 column. The fractions containing only Ubc12^N8 were concentrated and used for the study. The purity of proteins was examined by SDS-PAGE to be above 95%.
The dissociation constants (Kd) were obtained with biolayer interferometry by using an Octet QK system (ForteBio, Menlo Park, Calif., USA). Samples or buffer were dispensed into 96-well plates (Millipore, Billerica, Mass.) at 200 μL per well. Operating temperature was maintained at 30° C. Proteins were diluted into kinetic buffer (PBS with 0.1% BSA and 0.002% Tween-20) and immobilized on either anti-GST or Ni-NTA sensor tips. The other proteins were diluted using the same buffer into a range of different concentrations. Assays with Ubc12^N8 were carried out using the acid kinetic buffer (50 mM NaOAc pH 5.5, 50 mM NaCl, 0.1% BSA, and 0.002% Tween-20). The raw data were processed by subtraction to reference cells and then aligned with baselines. The dissociation constants Kd were obtained by fitting the processed data using the 1:1 model in the Octet analysis software with R^2>0.99.
Indeed, GlyRS can bind to Ubc12^N8 in HEK293 cells as detected by co-immunoprecipitation (FIG. 3a). […] To quantify the difference, Ubc12^N8 was enzymatically made and purified, and its binding affinity to GlyRS was measured using biolayer interferometry. […] Therefore, it is possible that GlyRS enhances neddylation by protecting reaction intermediate Ubc12^N8.
Using the crystal structure of human GlyRS16 and of Ubc12N8 (adapted from its complex with substrate cullin and E3), a model was generated for the GlyRS-Ubc12^N8 interaction using the Patchdock algorithm (http://bioinfo3d.cs.tau.ac.il/PatchDock/). […]

T1 sequence (P61081 whole entry C111S): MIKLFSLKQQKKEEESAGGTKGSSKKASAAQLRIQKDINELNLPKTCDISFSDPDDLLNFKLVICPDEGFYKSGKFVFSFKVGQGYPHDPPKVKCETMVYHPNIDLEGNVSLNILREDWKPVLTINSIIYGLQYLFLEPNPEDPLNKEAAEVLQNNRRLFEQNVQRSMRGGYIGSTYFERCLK
T1 sequence (Q15843 1-76 limits assumed): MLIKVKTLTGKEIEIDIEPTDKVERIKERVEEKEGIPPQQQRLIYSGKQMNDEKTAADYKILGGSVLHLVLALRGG

B1: Insertion 1: GlyRS with Insertion 1 deleted (F147-F224 replaced by GSGSGG) (protein)
chain: MDGAGAEEVLAPLRLAVRQQGDLVRKLKEDKAPQVDVDKAVAELKARKRVLEAKELALQPKDDIVDRAKMEDTLKRRFFYDQAFAIYGGVSGLYDFGPVGCALKNNIIQTWRQHFIQEEQILEIDCTMLTPEPVLKTSGHVDKFADGSGSGGNLMFKTFIGPGGNMPGYLRPETAQGIFLNFKRLLEFNQGKLPFAAAQIGNSFRNEISPRSGLIRVREFTMAEIEHFVDPSEKDHPKFQNVADLHLYLYSAKAQVSGQSARKMRLGDAVEQGVINNTVLGYFIGRIYLYLTKVGISPDKLRFRQHMENEMAHYACDCWDAESKTSYGWIEIVGCADRSCYDLSCHARATKVPLVAEKPLKEPKTVNVVQFEPSKGAIGKAYKKDAKLVMEYLAICDECYITEMEMLLNEKGEFTIETEGKTFQLTKDMINVKRFQKTLYVEEVVPNVIEPSFGLGRIMYTVFEHTFHVREGDEQRTFFSFPAVVAPFKCSVLPLSQNQEFMPFVKELSEALTRHGVSHKVDDSSGSIGRRYARTDEIGVAFGVTIDFDTVNKTPHTATLRDRDSMRQIRAEISELPSIVQDLANGNITWADVEARYPLFEGQETGKKETIEE
The molecule B1 registered a Kd of 4.32 ± 0.12 nM.

B2: GlyRS: human Glycyl-tRNA synthetase, recombinant full-length protein (SEQ ID NO: 2) (protein, listed as Homo sapiens)
chain: MDGAGAEEVLAPLRLAVRQQGDLVRKLKEDKAPQVDVDKAVAELKARKRVLEAKELALQPKDDIVDRAKMEDTLKRRFFYDQAFAIYGGVSGLYDFGPVGCALKNNIIQTWRQHFIQEEQILEIDCTMLTPEPVLKTSGHVDKFADFMVKDVKNGECFRADHLLKAHLQKLMSDKKCSVEKKSEMESVLAQLDNYGQQELADLFVNYNVKSPITGNDLSPPVSFNLMFKTFIGPGGNMPGYLRPETAQGIFLNFKRLLEFNQGKLPFAAAQIGNSFRNEISPRSGLIRVREFTMAEIEHFVDPSEKDHPKFQNVADLHLYLYSAKAQVSGQSARKMRLGDAVEQGVINNTVLGYFIGRIYLYLTKVGISPDKLRFRQHMENEMAHYACDCWDAESKTSYGWIEIVGCADRSCYDLSCHARATKVPLVAEKPLKEPKTVNVVQFEPSKGAIGKAYKKDAKLVMEYLAICDECYITEMEMLLNEKGEFTIETEGKTFQLTKDMINVKRFQKTLYVEEVVPNVIEPSFGLGRIMYTVFEHTFHVREGDEQRTFFSFPAVVAPFKCSVLPLSQNQEFMPFVKELSEALTRHGVSHKVDDSSGSIGRRYARTDEIGVAFGVTIDFDTVNKTPHTATLRDRDSMRQIRAEISELPSIVQDLANGNITWADVEARYPLFEGQETGKKETIEE
In turn, B2 yielded a Kd of 3.21 ± 0.17 nM.

B3: A84-93: GlyRS deletion mutant, F84-L93 replaced by GGG (protein)
chain: MDGAGAEEVLAPLRLAVRQQGDLVRKLKEDKAPQVDVDKAVAELKARKRVLEAKELALQPKDDIVDRAKMEDTLKRRFFYDQAGGGYDFGPVGCALKNNIIQTWRQHFIQEEQILEIDCTMLTPEPVLKTSGHVDKFADFMVKDVKNGECFRADHLLKAHLQKLMSDKKCSVEKKSEMESVLAQLDNYGQQELADLFVNYNVKSPITGNDLSPPVSFNLMFKTFIGPGGNMPGYLRPETAQGIFLNFKRLLEFNQGKLPFAAAQIGNSFRNEISPRSGLIRVREFTMAEIEHFVDPSEKDHPKFQNVADLHLYLYSAKAQVSGQSARKMRLGDAVEQGVINNTVLGYFIGRIYLYLTKVGISPDKLRFRQHMENEMAHYACDCWDAESKTSYGWIEIVGCADRSCYDLSCHARATKVPLVAEKPLKEPKTVNVVQFEPSKGAIGKAYKKDAKLVMEYLAICDECYITEMEMLLNEKGEFTIETEGKTFQLTKDMINVKRFQKTLYVEEVVPNVIEPSFGLGRIMYTVFEHTFHVREGDEQRTFFSFPAVVAPFKCSVLPLSQNQEFMPFVKELSEALTRHGVSHKVDDSSGSIGRRYARTDEIGVAFGVTIDFDTVNKTPHTATLRDRDSMRQIRAEISELPSIVQDLANGNITWADVEARYPLFEGQETGKKETIEE
Consider B3, for which the Kd was 27 ± 0.4 nM. In addition, the “fold decrease of binding of GlyRS to Ubc12^N8” value (versus full-length GlyRS) turned out to be 9 fold.

B4: A232-238: GlyRS deletion mutant, I232-M238 replaced by GG (protein)
chain: MDGAGAEEVLAPLRLAVRQQGDLVRKLKEDKAPQVDVDKAVAELKARKRVLEAKELALQPKDDIVDRAKMEDTLKRRFFYDQAFAIYGGVSGLYDFGPVGCALKNNIIQTWRQHFIQEEQILEIDCTMLTPEPVLKTSGHVDKFADFMVKDVKNGECFRADHLLKAHLQKLMSDKKCSVEKKSEMESVLAQLDNYGQQELADLFVNYNVKSPITGNDLSPPVSFNLMFKTFGGPGYLRPETAQGIFLNFKRLLEFNQGKLPFAAAQIGNSFRNEISPRSGLIRVREFTMAEIEHFVDPSEKDHPKFQNVADLHLYLYSAKAQVSGQSARKMRLGDAVEQGVINNTVLGYFIGRIYLYLTKVGISPDKLRFRQHMENEMAHYACDCWDAESKTSYGWIEIVGCADRSCYDLSCHARATKVPLVAEKPLKEPKTVNVVQFEPSKGAIGKAYKKDAKLVMEYLAICDECYITEMEMLLNEKGEFTIETEGKTFQLTKDMINVKRFQKTLYVEEVVPNVIEPSFGLGRIMYTVFEHTFHVREGDEQRTFFSFPAVVAPFKCSVLPLSQNQEFMPFVKELSEALTRHGVSHKVDDSSGSIGRRYARTDEIGVAFGVTIDFDTVNKTPHTATLRDRDSMRQIRAEISELPSIVQDLANGNITWADVEARYPLFEGQETGKKETIEE
Turning to B4, for the setting “immobilized Ubc12^N8, FIG. 3f”, the “binding of GlyRS to Ubc12^N8” value was “abolished the binding completely”.
